Measured values reported in PMC9974451.

Target: His-importin 7 (Xenopus laevis) (Xenopus laevis)
Assay: differential scanning fluorimetry; His-tagged NTR at 0.5 μM in TPB with 2 mM DTT, His-NOSIP or Ubc9 titrated in 18 steps from 0.05 to 5 μM, 5x SYPRO Orange, 25 to 90 °C; Tm plotted against concentration, exponential fit

B1: His-NOSIP (natural protein)
chain: MTRHGKNCTAGAVYTYHEKKKDTAASGYGTQNIRLSRDAVKDFDCCCLSLQPCHDPVVTPDGYLYEREAILEYILHQKKEIARQMKAYEKQRGTRREEQKELQRAASQDHVRGFLEKESAIVSRPLNPFTAKALSGTSPDDVQPGPSVGPPSKDKDKVLPSFWIPSLTPEAKATKLEKPSRTVTCPMSGKPLRMSDLTPVHFTPLDSSVDRVGLITRSERYVCAVTRDSLSNATPCAVLRPSGAVVTLECVEKLIRKDMVDPVTGDKLTDRDIIVLQRGGTGFAGSGVKLQAEKSRPVMQA
- Kd: 447 nM
